Experimental data reported in patent publication US20250179138.

System: ACP11 (human p40/murine p35 IL-12 fusion protein)

active MMP9 (Sigma catalog #SAE0078-50 or Enzo catalog BML-SE360), sequence (chain, as listed by the source): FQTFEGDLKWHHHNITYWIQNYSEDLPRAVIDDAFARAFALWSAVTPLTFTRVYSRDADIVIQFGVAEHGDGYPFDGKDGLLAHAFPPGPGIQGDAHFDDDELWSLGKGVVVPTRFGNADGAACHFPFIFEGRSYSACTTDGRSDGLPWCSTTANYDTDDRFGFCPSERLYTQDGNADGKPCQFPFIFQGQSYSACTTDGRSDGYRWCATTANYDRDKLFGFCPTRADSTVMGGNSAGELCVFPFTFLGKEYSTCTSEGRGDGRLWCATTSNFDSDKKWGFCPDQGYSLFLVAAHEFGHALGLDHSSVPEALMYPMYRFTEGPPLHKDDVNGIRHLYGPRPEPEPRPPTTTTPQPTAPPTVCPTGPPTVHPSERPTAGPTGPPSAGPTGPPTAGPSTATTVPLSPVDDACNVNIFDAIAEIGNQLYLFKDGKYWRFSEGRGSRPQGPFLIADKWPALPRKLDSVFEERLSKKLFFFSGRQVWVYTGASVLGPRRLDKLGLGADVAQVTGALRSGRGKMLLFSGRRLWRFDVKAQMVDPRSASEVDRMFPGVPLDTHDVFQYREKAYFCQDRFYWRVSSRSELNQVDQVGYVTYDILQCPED

Substance: active MMP9 (Sigma catalog #SAE0078-50 or Enzo catalog BML-SE360)
- protein cleavage assay, extent of cleavage monitored by SDS PAGE: the ACP11 fusion protein was cleaved by MMP9 protease
